Reference: US20040102606A1, “Histone H2A -derived peptides useful in gene delivery” (priority 2003, published 2004)

Tested on: syngeneic mouse model of neuroblastoma
Assay: Vaccination with histone H2A-transfected NXS2 cells, syngeneic mouse model of neuroblastoma
Type: in vivo
Conditions: subcutaneous immunization, histone H2A transient transfection; challenge with wild type tumor cells
Description: The present invention also contemplates use of the H2A-derived peptides to facilitate gene delivery in vivo. This embodiment is based on the successful subcutaneous immunization in a novel syngeneic mouse model of neuroblastoma with a single chain IL-12 fusion protein that was mediated by histone H2A transient transfection.
For this approach with intact histone H2A and also extendable to the peptides of this invention, mouse IL-2 and scIL-12 were cloned into the expression vector pcDNA3.1 (Invitrogen, Carlsbad, Calif.) as previously described (Lode et al., Proc. Natl. Acad. Sci., USA, 95:2475-2480, 1998). […] Supercoiled DNA was quantitated on 0.9% agarose gels using Stratagene's Eagle Eye. […] production was quantified on a 24 hour basis in cell culture supernatants using an ELISA assay kit (Biosource, Camarillo, Calif.) and compared with standard preparations of these cytokines. […]
NXS2 cells were tested routinely for the absence of mycoplasma contamination (Gen Probe® Mycoplasma Rapid Detection System, Fisher Scientific, Pittsburgh, Pa.). […] Cell viability was determined using trypan blue staining (Life Technologies, Gaithersburg, Md.), and the number of viable cells per experimental condition were determined. […]

B1: IL-2: mouse IL-2 expressed from pcDNA3.1 in transfected NXS2 cells (protein, UniProt P04351 21-169, looked up)
Interleukin-2: APTSSSTSSSTAEAQQQQQQQQQQQQHLEQLLMDLQELLSRMENYRNLKLPRMLTFKFYLPKQATELKDLQCLEDELGPLRHVLDLTQSKSFQLEDAENFISNIRVTVVKLKGSDNTFECQFDDESATVVDFLRRWIAFCQSIISTSPQ
  tumor immunity: no tumor immunity
